Source: IntAct's records for PubMed 20682316

B1: Oxysterols receptor LXR-alpha (Homo sapiens), Q13133 (parent)
chain: MSLWLGAPVPDIPPDSAVELWKPGAQDASSQAQGGSSCILREEARMPHSAGGTAGVGLEAAEPTALLTRAEPPSEPTEIRPQKRKKGPAPKMLGNELCSVCGDKASGFHYNVLSCEGCKGFFRRSVIKGAHYICHSGGHCPMDTYMRRKCQECRLRKCRQAGMREECVLSEEQIRLKKLKRQEEEQAHATSLPPRASSPPQILPQLSPEQLGMIEKLVAAQQQCNRRSFSDRLRVTPWPMAPDPHSREARQQRFAHFTELAIVSVQEIVDFAKQLPGFLQLSREDQIALLKTSAIEVMLLETSRRYNPGSESITFLKDFSYNREDFAKAGLQVEFINPIFEFSRAMNELQLNDAEFALLIAISIFSADRPNVQDQLQVERLQHTYVEALHAYVSIHHPHDRLMFPRMLMKLVSLRTLSSVHSEQVFALRLQDKKLPPLLSEIWDVHE
B2: Retinoic acid receptor RXR-alpha (Homo sapiens), P19793 (parent)
chain: MDTKHFLPLDFSTQVNSSLTSPTGRGSMAAPSLHPSLGPGIGSPGQLHSPISTLSSPINGMGPPFSVISSPMGPHSMSVPTTPTLGFSTGSPQLSSPMNPVSSSEDIKPPLGLNGVLKVPAHPSGNMASFTKHICAICGDRSSGKHYGVYSCEGCKGFFKRTVRKDLTYTCRDNKDCLIDKRQRNRCQYCRYQKCLAMGMKREAVQEERQRGKDRNENEVESTSSANEDMPVERILEAELAVEPKTETYVEANMGLNPSSPNDPVTNICQAADKQLFTLVEWAKRIPHFSELPLDDQVILLRAGWNELLIASFSHRSIAVKDGILLATGLHVHRNSAHSAGVGAIFDRVLTELVSKMRDMQMDKTELGCLRAIVLFNPDSKGLSNPAEVEALREKVYASLEAYCKHKYPEQPGRFAKLLLRLPALRSIGLKCLEHLFFFKLIGDTPIDTFLMEMLEAPHQMT

Variants of: B1
Conditions: with ncoa1_human NCOA1, Q15788
Target sequence in this assay (Q15788 whole entry): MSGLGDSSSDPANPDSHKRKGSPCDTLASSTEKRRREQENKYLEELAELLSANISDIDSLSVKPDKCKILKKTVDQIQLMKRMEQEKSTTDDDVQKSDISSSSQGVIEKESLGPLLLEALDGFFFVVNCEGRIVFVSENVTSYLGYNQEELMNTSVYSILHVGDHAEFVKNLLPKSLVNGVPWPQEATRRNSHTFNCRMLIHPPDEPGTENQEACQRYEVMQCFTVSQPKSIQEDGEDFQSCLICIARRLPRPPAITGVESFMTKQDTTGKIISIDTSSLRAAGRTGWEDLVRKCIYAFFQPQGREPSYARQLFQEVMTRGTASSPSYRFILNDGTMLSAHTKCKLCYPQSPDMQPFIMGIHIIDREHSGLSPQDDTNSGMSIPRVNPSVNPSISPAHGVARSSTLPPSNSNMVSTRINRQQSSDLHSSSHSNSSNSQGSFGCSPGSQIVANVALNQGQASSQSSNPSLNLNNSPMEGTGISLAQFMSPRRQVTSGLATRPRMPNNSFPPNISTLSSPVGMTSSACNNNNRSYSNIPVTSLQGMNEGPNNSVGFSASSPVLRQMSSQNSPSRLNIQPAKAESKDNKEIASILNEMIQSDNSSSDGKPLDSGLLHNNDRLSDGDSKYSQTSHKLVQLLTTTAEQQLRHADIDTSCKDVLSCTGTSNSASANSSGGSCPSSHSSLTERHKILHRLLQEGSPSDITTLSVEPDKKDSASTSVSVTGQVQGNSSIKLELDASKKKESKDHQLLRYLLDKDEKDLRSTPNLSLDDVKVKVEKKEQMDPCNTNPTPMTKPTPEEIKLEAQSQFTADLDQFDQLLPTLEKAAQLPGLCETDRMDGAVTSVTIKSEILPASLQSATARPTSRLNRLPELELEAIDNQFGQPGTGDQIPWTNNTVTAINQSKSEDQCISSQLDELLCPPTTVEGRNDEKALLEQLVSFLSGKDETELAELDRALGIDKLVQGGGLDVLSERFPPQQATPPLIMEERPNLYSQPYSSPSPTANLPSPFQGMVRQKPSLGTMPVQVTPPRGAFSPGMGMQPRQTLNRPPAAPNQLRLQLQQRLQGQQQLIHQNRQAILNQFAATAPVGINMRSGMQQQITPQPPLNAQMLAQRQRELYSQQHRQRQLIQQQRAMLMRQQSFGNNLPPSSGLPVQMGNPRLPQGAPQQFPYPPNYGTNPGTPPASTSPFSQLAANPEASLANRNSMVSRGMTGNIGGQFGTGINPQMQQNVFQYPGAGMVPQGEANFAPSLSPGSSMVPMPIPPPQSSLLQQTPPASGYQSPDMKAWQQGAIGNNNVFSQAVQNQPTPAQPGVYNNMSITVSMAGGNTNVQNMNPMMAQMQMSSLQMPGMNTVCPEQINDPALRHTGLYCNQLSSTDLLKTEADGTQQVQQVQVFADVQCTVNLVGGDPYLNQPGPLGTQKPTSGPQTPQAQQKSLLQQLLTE

Variant	effect of a mutation on the interaction
E441A	disrupting interaction
I442A	disrupting interaction

Variants of: B1
Conditions: with ncoa1_human NCOA1, Q15788
Remark: another data set of the same source
Target sequence in this assay (Q15788 whole entry): as above

Variant	effect of a mutation on the interaction
K273A	disrupting interaction

Variants of: B2
Conditions: with ncoa1_human NCOA1, Q15788
Target sequence in this assay (Q15788 whole entry): as above

Variant	effect of a mutation on the interaction
K284A	disrupting interaction
